Read-outs that look alike come from different tables or passages of the source.
Experiments:
[1] = test system: L1210 leukemia cells; experiment: Survival of mice transplanted with L1210 leukemia cells (FIG. 4); format: in vivo; conditions: DBA2 mice; AraC 1000 mg/kg IP Days 2, 5, 8; DNase II 15 or 45 mg/kg/day IP; alone or combined
Protocol: Treatment with DNase and AraC was initiated on Day 1 of experiment. Cytosine arabinoside (AraC; Cytosar, Pfizer) was injected IP at a dose of 1000 mg/kg on Days 2, 5 and 8. The injected doses were considered adequate for the model and injection route based on prior experiments (13-14). DNase II (Wornington) was injected IP at doses of 15 mg/kg/day and 45 mg/kg/day on Days 1, 3, 5, 8, 10, 12, 15, 17, and 19.
Animals were randomized into 6 experimental groups of 6 mice per group as follows: • 1. Group I: negative control (no treatment); • 2. Group II: positive control (animals treated with AraC); • 3. […]; • 4. Group IV: animals treated with AraC and 45 mg/kg DNase; • 5. Group V: animals treated with 15 mg/kg DNase, no AraC; • 6. Group VI: animals treated with 45 mg/kg DNase, no AraC.
The vertical axis of FIG. 4 represents the survival measured in days after implantation with the L1210 leukemia cells. The six experimental groups are represented on the horizontal axis: 1—Negative Control; 2—AraC (positive control); 3—AraC+DNase II 15 mg/kg; 4—AraC+DNase II 45 mg/kg; 5—DNase II 15 mg/kg 6—DNase II 45 mg/kg.

[2] = test system: gastrointestinal lesions; format: in vivo, rats; conditions: for Total number of lesions per group: 16 rats
Protocol: On Day 1, Etoposide (LANCE) 200 mg/kg and 5-fluorouracil (5-FU; EBEWE) 400 mg/kg were given orally via feeding needle in 500 μl of a 9% glucose solution. Animals were divided into 4 groups of 16 rats each. […] Group I: IV placebo (WFI); • 2. Group II: human recombinant DNase I (Pharmsynthez OJSC) at 1.5 mg/kg (3000 KU/kg) dose IV; • 3. Group III: human recombinant DNase I (Pharmsynthez OJSC) at 50 mg/kg (100000 KU/kg) dose IV; • 4. Group IV: cimetidine solution (Gedeon Richter) at 50 mg/kg dose IV.
36 hours later, all animals were euthanized and their stomachs were removed and analyzed for the presence of erosions and hemorrhages using an automated video analyzer system.

[3] = test system: Wistar male rats; conditions: for Number of dead/out of total in group: monitored 2 weeks
Excerpt: Group I: control group (no Doxorubicin, no DNase); • 2.
Animals were monitored during 2 weeks from the beginning of experiment for survival and weight.

[4] = test system: white blood cell count (WBC); experiment: Cyclophosphamide-induced neutropenia in mice (FIG. 3); format: in vivo; conditions: for Effect on typical early phase decline in WBC count (FIG. 3): cyclophosphamide 200 mg/kg IP Day 1, DNase I 25 mg/kg/day IV or GM-CSF 200 μg/kg/day SC on Days 2-5
Protocol: 30 female 10-12 week old BALB/C mice (obtained from Rappolovo animal house) were used in this experiment. […] Starting on Day 2, mice were then treated as follows: • 1. Group I (n=10): control (no treatment); • 2. […] Group III (n=10): animals were treated with human recombinant GM-CSF (Neostim, Pharmsynthez OJSC) at 200 μg/kg/day dose injected subcutaneously (SC) on Days 2-5. […] The graph in FIG. 3 summarizes the dynamics of the white blood cell count (WBC) in the three experimental groups. The vertical axis represents WBC with units of 10^9 WBC/L. The horizontal axis represents the number of days after cyclophosphamide injection.

[5] = Body weight of mice with Erlich carcinoma, DNase with or without radiotherapy; format: in vivo
[6] = test system: Erlich carcinoma cells; experiment: Survival of mice with Erlich carcinoma, DNase with or without radiotherapy; format: in vivo; conditions: for % Survival on Day 16: no radiotherapy
[7] = test system: myocardium; experiment: Myocardial necrosis area in deceased rats challenged with doxorubicin (FIG. 1); format: in vivo; conditions: Doxorubicin 7.5 mg/kg IV, DNase I 15 mg/kg daily IP vs placebo
Protocol: FIG. 1 is a bar graph showing myocardial necrosis area in deceased rats challenged with sub-lethal IV doses of doxorubicin (7.5 mg/kg) and either daily IP injections of human recombinant DNase I (15 mg/kg) (black bar) or daily […] injections of placebo (WFI) (diagonal hatched bar). Serial myocardium microscopy samples from each heart were analyzed using an automated video analyzer to quantify the necrotic areas. The sum of necrotic area (Sna; nm^2) was calculated as a sum of necrotic areas in 30 serial slides from each individual autopsied heart (n=3 for DNase I-treated rats—black bar; n=5 for placebo-treated rats—diagonal hatched bar).
The hearts deceased rats challenged with sub-lethal doses of doxorubicin (7.5 mg/kg) from (Groups IV and V) were autopsied. Serial myocardium microscopy samples from each heart were analyzed using an automated video analyzer to quantify the necrotic areas. The sum of necrotic area (Sna; nm^2) was calculated as a sum of necrotic areas in 30 serial slides from each individual autopsied heart (n=3 for Group IV (FIG. 1, black bars); n=5 for Group V (FIG. 1, diagonal hatched bars)). Group IV received daily IP injections of human recombinant DNase I at 15 mg/kg dose, while Group V received daily IP injections of placebo (WFI).

[8] = test system: thymocytes; experiment: Con A-induced lymphocyte blast transformation of thymocytes from paclitaxel-treated mice; format: in vivo; conditions: paclitaxel 20 mg/kg IV, DNase gamma 2 mg/kg IP
Protocol: 10 male 6-week-old (CBAxCS7Bl6) F1 mice (obtained from Rappolovo animal house) were given a single 20 mg/kg dose of paclitaxel (Paclitaxel-Teva) IV. A group of 5 paclitaxel treated mice were injected IP 1 hour later with recombinant mouse DNase gamma (USCN Life Science Inc.) at 2 mg/kg dose IP. A group of 5 untreated mice were injected IP at the same time with 1 ml of placebo (WFI) to serve as the control. All mice were killed 24 hours later by cervical dislocation. The thymuses from each group were collected and homogenized in a separator in RPMI 1640 media supplemented with 10% fetal calf serum. The suspension of thymocytes was filtered and sedimented in a centrifuge at 400×g for 2 minutes and then resuspended with the same media. Thymocytes were plated into 96 well plates (900,000 cells per well in 200 μl of RPMI 1640 supplemented with 10% fetal calf serum (FCS)) and incubated for 32 hours at 37° C., 100% humidity and 5% CO2 atmosphere. Each well was then supplemented with ^3H thymidine (1 μCi/10 μl/well) and Concanavalin A (ConA; 50 μl: 1.25 μg/ml). After 24 hours of further incubation, thymocytes were harvested and dried. Labeled ^3H thymidine incorporation was measured using a Beckman scintillation counter.

[9] = treatment 50 mg/kg IV 2 h after Etoposide 200 mg/kg + 5-FU 400 mg/kg per os
[10] = Doxorubicin 7.5 mg/kg/day IV 5 days with DNase I 15 mg/kg/day IP (Group IV) or placebo IP (Group V)
[11] = Doxorubicin 10.0 mg/kg/day IV 5 days with DNase I 15 mg/kg/day IP (Group VI) or placebo IP (Group VII)
[12] = of 16 rats, treatment 50 mg/kg IV after Etoposide 200 mg/kg + 5-FU 400 mg/kg per os
[13] = DNase I 15 mg/kg/day IP with Doxorubicin IV 5 days

Nc1ccn([C@@H]2O[C@H](CO)[C@@H](O)[C@@H]2O)c(=O)n1 [AraC, cytosine arabinoside]
Survival after implantation with L1210 leukemia cells (FIG. 4) [1]: better survival rates

CN/C(=N/CCSCc1nc[nH]c1C)NC#N [Cimetidine, cimetidine, reference compound]
Total number of lesions per group [2, 9]: 40

COc1cccc2c1C(=O)c1c(O)c3c(c(O)c1C2=O)C[C@@](O)(C(=O)CO)C[C@@H]3O[C@H]1C[C@H](N)[C@H](O)[C@H](C)O1 [Doxorubicin, reference compound]
Number of dead/out of total in group [3, 10]: 5/6 | Number of dead/out of total in group [3, 11]: 6/6

GM-CSF: human recombinant GM-CSF (Neostim, Pharmsynthez OJSC)
Effect on typical early phase decline in WBC count (FIG. 3) [4]: not able to prevent it

B1: human recombinant DNase I: human recombinant DNase I (Pharmsynthez OJSC), deoxyribonuclease enzyme (protein, UniProt P24855 23-282, looked up)
Deoxyribonuclease-1: LKIAAFNIQTFGETKMSNATLVSYIVQILSRYDIALVQEVRDSHLTAVGKLLDNLNQDAPDTYHYVVSEPLGRNSYKERYLFVYRPDQVSAVDSYYYDDGCEPCGNDTFNREPAIVRFFSRFTEVREFAIVPLHAAPGDAVAEIDALYDVYLDVQEKWGLEDVMLMGDFNAGCSYVRPSQWSSIRLWTSPTFQWLIPDSADTTATPTHCAYDRIVVAGMLLRGAVVPDSALPFNFQAAYGLSDQLAQAISDHYPVEVMLK
Total number of lesions per group ([2]; treatment 1.5 mg/kg IV 2 h after Etoposide 200 mg/kg + 5-FU 400 mg/kg per os): 60 | Total number of lesions per group [2, 9]: 16 | Achieved protection compared to 1.5 mg/kg DNase I dose and 50 mg/kg dose of cimetidine ([2]; DNase I 50 mg/kg IV, rats treated with etoposide and 5-FU): significantly superior | Number of lesion free animals ([2]; of 16 rats, treatment 1.5 mg/kg IV after Etoposide 200 mg/kg + 5-FU 400 mg/kg per os): 5 | Number of lesion free animals [2, 12]: 12 | Number of lesion free animals (percent) [2, 12]: 75% | Effect on chemotherapy-induced ulceration ([2]; rats treated with etoposide and 5-FU, dose-dependent (1.5 and 50 mg/kg IV)): suppresses chemotherapy-induced ulceration | Change in Median Body Weight on Day 16 ([5]; Group 4: radiotherapy 200 cGy per day for 5 days plus DNAse I 20 mg/kg/day intramuscularly): 0 g | Effect on body weight loss induced by radiotherapy ([5]; mice with Erlich carcinoma, radiotherapy plus DNase I): clearly prevents the body weight loss | Effect on lethality of doxorubicin [3, 13]: suppresses the lethality of doxorubicin | Effect on life span of rats challenged with sub-lethal doses of doxorubicin [3, 13]: increases the life span | Number of dead/out of total in group [3, 10]: 3/6 | Number of dead/out of total in group [3, 11]: 6/6 | Survival rates versus non-treated mice ([6]; DNase I alone (Groups 2 and 3)): better survival rates | % Survival on Day 16 ([6]; Group 2: DNAse I 20 mg/kg/day intramuscularly in 2 daily doses): 40% | % Survival on Day 16 ([6]; Group 3: DNAse I 40 mg/kg/day intramuscularly in 2 daily doses): 50% | Survival of combination of radiation therapy and DNase versus either treatment alone ([6]; Groups 4 and 5, dose-dependent on DNase): clear survival advantage | Effect on myocardial necrosis area (FIG. 1) [7]: decreases the myocardial necrosis area | Effect on neutropenia induced by cyclophosphamide (FIG. 3) ([4]; cyclophosphamide 200 mg/kg IP Day 1, DNase I 25 mg/kg/day IV Days 2-5): ameliorates neutropenia | Effect on typical early phase decline in WBC count (FIG. 3) [4]: prevents the typical early phase decline in WBC count

B2: DNase gamma: recombinant mouse DNase gamma (USCN Life Science Inc.) (protein, UniProt O55070 26-310, looked up)
Deoxyribonuclease gamma: LRLCSFNVRSFGASKKENHEAMDIIVKIIKRCDLILLMEIKDSSNNICPMLMEKLNGNSRRSTTYNYVISSRLGRNTYKEQYAFVYKEKLVSVKTKYHYHDYQDGDTDVFSREPFVVWFHSPFTAVKDFVIVPLHTTPETSVKEIDELVDVYTDVRSQWKTENFIFMGDFNAGCSYVPKKAWQNIRLRTDPKFVWLIGDQEDTTVKKSTSCAYDRIVLCGQEIVNSVVPRSSGVFDFQKAYDLSEEEALDVSDHFPVEFKLQSSRAFTNNRKSVSLKKRKKGNRS
Effect on taxane-induced suppression of thymocytes' proliferative activity [8]: ameliorates taxane-induced suppression

Reference: patent US10617743B2, “Method to improve safety and efficacy of anti-cancer therapy” (CLS Therapeutics Limited, priority 2014, dated 2020)
